# Measured values from patent publication US5840683A, “Peptides inhibiting the oncogenic action of p21 ras” (Innapharma, Inc., dated 1998).
# T1: human oncogenic ras p21 (human)
# T1 chain: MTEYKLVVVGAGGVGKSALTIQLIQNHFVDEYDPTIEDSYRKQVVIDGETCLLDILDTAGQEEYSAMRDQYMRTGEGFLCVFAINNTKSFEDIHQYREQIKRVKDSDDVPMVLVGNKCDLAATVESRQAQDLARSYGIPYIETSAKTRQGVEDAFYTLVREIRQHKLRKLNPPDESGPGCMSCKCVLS
# Target: T1, human oncogenic ras p21
# Assay: cell-based or functional assay
# Settings: not given
row,Molecule,Present Inhibition of ras-Induced Maturation [%]
1,"TIEDSYRKQVVID [peptide of SEQ ID NO:6, Thr-Ile-Glu-Asp-Ser-Tyr-Arg-Lys-Gln-Val-Val-Ile-Asp]",28
2,VVI [Val-Val-Ile],34
3,"YREQIKRVKDSDDVP [peptide of SEQ ID NO:7, Tyr-Arg-Glu-Gln-Ile-Lys-Arg-Val-Lys-Asp-Ser-Asp-Asp-Val-Pro]",56
4,KRV [Lys-Arg-Val],22
5,"IKRVKD [peptide of SEQ ID NO:1, Ile-Lys-Arg-Val-Lys-Asp]",76
6,"GNKCDLAARTVE [peptide of SEQ ID NO:8, Gly-Asn-Lys-Cys-Asp-Leu-Ala-Ala-Arg-Thr-Val-Glu]",92
7,"KCDLA [peptide of SEQ ID NO:2, Lys-Cys-Asp-Leu-Ala]",38
8,"CDLAART [peptide of SEQ ID NO:9, Cys-Asp-Leu-Ala-Ala-Arg-Thr]",65
9,"DLAA [peptide of SEQ ID NO:4, Asp-Leu-Ala-Ala]",22

# Tested on: oncogenic ras-p-21
# Assay: not given
# Settings: background statement; cited from earlier work
row,Molecule,inhibition of oncogenic ras-p-21
1,N[C@@H](Cc1ccc(O)cn1)C(=O)O [Azatyrosine],strongly inhibits
